# Laboratory results from the DeepSol protein solubility set.
# Experiment: soluble on expression in E. coli; label from the status in PepcDB or PDB records
row,Sequence,soluble on expression in E. coli
1,MASDDEEDFTQLQINQNRKHKKAGGWQQIGLDHSVYKAIEKKGFNQPTPIQRKTIPCIMDGKDVVAMSRTGSGKTAAFVIPMLQKLKRRDTTGIRALMVSPTRELALQTFKVVKELGRFTGLRCACLVGGDQIEEQFSTIHENPDILLATPGRLLHVIVEMDLRLSYVQYVVFDEADRLFEMGFQDQLTETLKRIPESRQTLLFSATLPKMLVDFAKAGLTDPMLVRLDVDEKVSDKLSMVFCMCRPDEKLFALLHLCRNFCFKKLLETSLKKCKISKKKVPLLKKVRMDRENKQTVVFCATMKHVEYVVGILHRAGIDCSFVYSQLDATARKMNIQKFHEKQNNILVVTDVAARGVDIPLLDTVINLHFPPKAKLFVHRVGRVARAGRSGTAISLIANDELPYLTDLFMFLGKPINFASDKSEYKEDETLIGRVPDSIVSLETEFFHSIHDNNEDMQDLRQKATNAMMKYTRTRPPPSAESARRVKQDIRTDSVECAPHPFLKADGDKQSNDILNKISQYKSRNTIFEMNKSQKSQALAVMQAKRKAHEPRISTVTEEKRKQKEEKEQQQKSTDIAVEIAEKTVENAGEDELAEVFGTVIGSTKHTEKSEEKGGKKRKIGTGKRIDRAEQMKFEREKHYVPYMSSDHVAERHLALDTVDFARQAEGASVDIIMDDDRGMYQQKHGQRWDRRLKKYVGLSGGNEPANKKIRTEDGTWLPASYKTGKYEDWKQKQKIGFKKSDGGGDDGDNEGSGGMDRKRKWKMEKPKGGPKHSELKNKEQILKGRRKQEQLENYMEHRRQSNLKKKAEHLGRGGAGGARGGARGGARGGARGGSSRGARGGARGGGKFGNRR,not soluble
2,MGHHHHHHGSDSEVNQEAKPEVKPEVKPETHINLKVSDGSSEIFFKIKKTTPLRRLMEAFAKRQGKEMDSLRFLYDGIRIQADQAPEDLDMEDNDIIEAHREQIGGDSEVNQEAKPEVKPEVKPETHINLKVSDGSSEIFFKIKKTTPLRRLMEAFAKRQGKEMDSLRFLYDGIRIQADQAPEDLDMEDNDIIEAHREQIGGMFMAKITGSVVSTKKEDSLTGKKLMIVQPIDANGEHVRSEEVACDSVGAGIGEYVLVARGNAARSVFAEPNSAIDSAIIAIVDSFDK,soluble
3,DKLTRQPFFIKLINYLQIHDDVTLRQIKRNFADTEHLERSIEDYVQAGYVLRENKHYYNAFELLENLDGLTLDSQIFVDDQSSIYQDLLALTFETYLSNQTNAALIIEKTDISRDALTLSNYFFKLNENFPLSRKQKPLYHLLGDVNPNYALKYMTTFLLKFWGKDVVKQKRPDIFVQALVLLGYLEQVGKQSYCLKMTFDKEKLIFAS,soluble
4,MKPENKIPVLTRLSDEMTAVVNFQQPGLPPWPADGDIETQRQYYLLERRFWNADAPSMTTRTCAVPTPYGDVTTRLYSPQPTSQATLYYLHGGGFILGNLDTHDRIMRLLARYTGCTVIGIDYSLSPQARYPQAIEETVAVCSYFSQHADEYSLNVEKIGFAGDSAGAMLALASALWLRDKHIRCGNVIAILLWYGLYGLQDSVSRRLFGGAWDGLTREDLDMYEKAYLRNDEDRESPWYCLFNNDLTRDVPPCFIASAEFDPLIDDSRLLHQTLQAHQQPCEYKMYPGTLHAFLHYSRMMTIADDALQDGARFFMARMKTPR,not soluble
5,ADFEVHMLNKGKDGAFVFEPASLKVAPGDTVTFIPTDKGHNVETIKGMIPDGAEAFKSKINENYKVTFTAPGVYGVKCTPHYGMGMVGVVQVGDAPANLEAVKGAKNPKKAQERLDAALAALGN,soluble
6,MKVTKSEIVISAVKPEQYPEGGLPEIALAGRSNVGKSSFINSLINRKNLARTSSKPGKTQTLNFYIINDELHFVDVPGYGFAKVSKSEREAWGRMIETYITTREELKAVVQIVDLRHAPSNDDVQMYEFLKYYGIPVIVIATKADKIPKGKWDKHAKVVRQTLNIDPEDELILFSSETKKGKDEAWGAIKKMINR,soluble
7,MINIETPTYYTATKKYELSFPSLETDLDADVVVIGGGFSGINTALELAEHGITDIVVLEARHLGFGGTGRNGGQIMAGIGHDLEKIRKDVGEDGLRAIFEISDLGADIIKGRIEKYAIDADFCHGYGYMGFNARQAKTLQAWEKEFRSLGSPHEIRYLHGAEVRQIIGSDAYGSALLHMGGGHVHSLNLLLGEAKALAGLGARIFEYSPALEVQYGERIRVRTAKGSVTANKLLWACDSFLNRLEPELHRTTINTYAFQMMTEPLPDELIQRISPIRGAYSDIRPVIDYYRVTNENRLLFGAATPFVERIPGDLKAWNRKLMLKIFPYLEHVRIDLAWGGPMACSANLFPQIGSLSGRPNAFFVQGYSGFGVTPSHIVCKVLAEGMSEGSARYDLLSSVRRIPIHGKDHFRPLLLSAGKTWHQLSGYWNGRR,not soluble
8,MSAKIKAWSSNAEKLNSKRKKMEIREELFPSTTCSSSPQANQEISSEDRNSHHPDIASSSSATTCRSSNCFNMDEGILTRDVEMDFSDEIPTFSHNRFSNPVFPPTPSRNSFSTPRVRIISNVEQIPQIKMLRLTIERLKNEKMKYQKKYKSGMAVDFLSKCGLSLSQMEKIKNYLTNSIGYDLLPLVKNTRDLSIQLSMISSFKVSTSFDNKGKVITIVQCMKIAEVLAYRIELLCNSNQFVDDGYTKGVIKIGVVGDAGGGSTKHVMVIAVYDGSDNYSCLKKFIPDVLEQLGKLTKIRYLDKGVQKTAKIVQIATGDCKFQFDILGHQGHSSHNFCFKCFAQNPRGAEERMKIKDMNVDETFHPRTIDLYKACCTPLLPHVAIMFYLIPLLHIIMGIFDKYIFNPLWKYSVTLDNTTCFPILKTRKATLKNAVNLIKSAEEKYQAATGKMKLESHAELKALQSEKLLLDTIVNGTPGGTLEKMEQCWAKFGADKQAWFQSFCGNHLKLLLTPAIVEETFNIFGPNLCPMLLGLKSAMGKLSTIMSLSGNKFLNDSDVLILQNSIRGFVEDLKVAVPEETIILKLHLVVYHAPQMAKDVRNIGRITEPGVESVHAIFNALERRFCNYRDKKRRYIHVLRELMCRNIMNDMTMNTSIPGLSIVPKDATVLPISSQNDLRDPKVVIRDVTAAQKRKNLAKKKINFSSKKRLPQSTKSRNAVPDFSQNVQTSIAFGGNSTKIGFRGLPSNALSRPNPMAITQTCSTSQPITRSHPLVAPPVSYQLPKCSNSLAEKIRASCGQARRSAAESSSTESHVDTNSKKKVYRLKFVQKSREIPKK,not soluble
9,MGSDKIHHHHHHLITVQDLELRAGARLLMDQVSFRIDKGDKIGLVGRNGAGKTTLTRVLAGEGLPAAGKVTRSGEIGYLPQDPRTPDMEQLARDRILSVRGLDIAVGKLRLAHEEMASEDAAVQRKAMNRYDRLESEFLAAGGYAAEAEAAAICSNLALPDRLLNQPLKTLSGGQRRRVELARILYSDAETMLLDEPTNHLDADSIAWLRDFLKNHQGGLIVISHDTELLEATVNKVFLLDANRAQIDFYNMDWKRYLQQRETDERARKRERANAEKKAQVLFDQANKMRAKATKAVAAQNMAKRAERLLSGLEAVRENDRVAALRFPDPSPCGKTPLTADGLSKSYGSLEIFTDVDLAIDRGSKVVILGLNGAGKTTLLRMLAGVDKPDTGEVIAGHGLKVGYYAQEHETLDVDRTVLQNMRSSAPDMNDSEVRGILGSFLFSGDDVDKPAGVLSGGEKTRLALATIVASSANVLLLDEPTNNLDPASRTEILGALRNYTGAVVLVSHDEGAVEALNPERVVLLPDGVEDHWNEDYLDLITLA,not soluble
10,MKEYLKEVLDVSGEKFFILNPMIPNMDSNKPNFIIGKKSLIYTGKFAKDWNSDEILEAFAKIVRTNPDFRLIVAGDKFNLHPENPNFKEEVTQKLKTYKNVDWVGGVTREEVQKLIQQSDIGIGWRNNSLNDSLELSTKALEYGALGKPVILNRTPMHERLFGSEYPFYANSEEEFISCITQSLTNDDIYASAAETVYKVCTDFTFAKTYERISPFLWEAKDKRIRLVFAGHDLKFAKMFIDRFASRTRYEVEIDQWKGHSVNDESHSTNCLNWADVIFCEWGLGNAVWYSHRVRQGQTLIVRMHLQERETKHYLKFNYDAIDSIIAISPYIRDEFVNNCGIPSDNMVMIYNAVNCKKFDLEKYEDTQFNLGITGICPSRKRLDRAIDIFEKLKEKDSRYTLHIKGQLPTHYPWLWKKEEEKKYYEQVFKRINSSKWRDSIIFDGFGNDMDTWFQKIGYILSTSDFESFHLAPAEGMASGAFPIIIRWEGCHTIYDEDFIFENVDEAATFILKRNQVMGPNDIDVRTYVRNRFDIEKIFGDWEELIARLR,not soluble
11,MAIKSVVVGKGTLTLAMKDAHTQALDFSAQVTSAKFQPDSSTGDSITVLSGETIPGKKSFGGHLEIDFLQDFSTNGIVDFSYKNAGKEADFVYTPNTEAKAKLQGTVIIAPLEVGDDVEAIAKSAAKWVVPSLPTFTPGG,not soluble
12,MDENTRNLIKKVERSVFAGNRAAAAKELGEIGDFDAVPVLLKALEDSSSKVKAAASEALGEINDPDAVPCLMKMLDYPESYVKKAAIIALGKIGTQEAVSGIVKGFRDPDKLIRKESVKALMRIGSPEAVSGLTATFTCPDSPLKRISITALGKINTYEAACGLVKALEDPDNRVRQQAVETLGKRGISDVLEELMELLKDSRQPVQEAASEALCKIIGGSESVPVLVKALGASDRKVRKASIEALGKAGNSEAVSALLKELDDDDWYLRSRAADVLADIASPEAALGLVKALDLHDAPVRKLIVSALGKIGSPETIEGLVKALDDPDNSIREAATLGLGKTGKVEAVPGLLRALHDPKNTVQEAAATSLGDMKAREAVPEFLRILEDPDSLIHKSVIFSLEKIGTPEAVAGLSRALNNPDAMVRKAAAKSLEKIKKSGLPLEKAKNIEISGFNISE,not soluble
13,NLMKRCTRGFRKLGKCTTLEEEKCKTLYPRGQCTCSDSKMNTHSCDCKSC,soluble
14,SNAMNHSRESYDRLARELGGYRHPWARVLSGPDPELTFDLWLSRLLTPQTRVLEAGCGHGPDAARFGPQAARWAAYDFSPELLKLARANAPHADVYEWNGKGELPAGLGAPFGLIVSRRGPTSVILRLPELAAPDAHFLYVGPRLNVPEVPERLAAVGWDIVAEDHVSVLAHAPTWEDWQMRGEFMGKLARRADWDAEATVRGMPYREERHLVLARQLGVARKLGA,soluble
15,MPTPCYISITGQTQGNITAGAFTADSVGNIYVQGHEDEMLVQEFLHNVTVPTDPQSGQPAGQRAHKPFIFTVALNKAVPLMYNALASGEMLPTTELHWWRTSVEGKQEHYFTTRLTDSTIVDMKLHMPHCQDPAKREFTQLLEVSLAYRKIEWEHVKSGTSGADDWRAPLEA,soluble
16,MGSDKIHHHHHHMASLPRLYYVTSGLDEANAFATWRAVISPLFEPRPCGPSRKTPTGSAYGIIIGDLVVAKVAFNAQDFVRDAQRIAVTPDHLLLHLYVSGGFNGEVTRQQTVIGPGKVALIDLACPLSTRAFASNTMCLIVPRKLLAGLPLHALKPKLDPLRNDLLAAYIRSLQERSAQLTEADVATTVAETADFLRRLLAPSAEADLAPERSADETILALTEALIRDNLALPELSPDWLAQQLDVSRASLYRLFAERGGVMRYVQERRLLAVQAALADPLETRRLSRLASDLGFKSEAHFSRSFRARFGITASAYRKAQLDASAAIQLTSPAVVQQWWTAVARDPLRHAG,not soluble
17,QYAIERHFYSQDFSYISSKFNAIENELKSSLEDVFKQANNSTLYMWVFEGKLNVYQNSSLTIPQNRAYSISSPQVLNHERAIEWSEDSLNIRAFAFQAGEYQVVLGMSINHHILFLDKLD,not soluble
18,MAHHHHHHMPGSELISGGWFREENDQWPGQAMSLRVEKVLYDAPTKFQHLTIFESDPKGPWGTVMALDGCIQVTDYDEFVYHEVLGHTSLCSHPKPERVLIIGGGDGGVLREVLRHGTVEHCDLVDIDGEVMEQSKQHFPQISRSLADPRATVRVGDGLAFVRQTPDNTYDVVIIDTTDPAGPASKLFGEAFYKDVLRILKPDGICCNQGESIWLDLELIEKMSRFIRETGFASVQYALMHVPTYPCGSIGTLVCSKKAGVDVTKPLRPVEDMPFAKDLKYYDSEMHKASFALPRFARHINNSE,soluble
19,VKLDDHTYQINGRVLLDDLNKKFGIEFEDSEDIDTIGGWLQSQNTNLQKDDFVDTEYDRWTITEIDNHQIIWVNLNYEFNSGRPSVNEEQEDDERD,not soluble
